Assay results taken from US20100003237.

B1: Wild type hMMP-1 clone BAP006-2 (expressed in CHO-S cells), activated with AMPA (protein)
chain: FVLTEGNPRWEQTHLTYRIENYTPDLPRADVDHAIEKAFQLWSNVTPLTFTKVSEGQADIMISFVRGDHRDNSPFDGPGGNLAHAFQPGPGIGGDAHFDEDERWTNNFREYNLHRVAAHELGHSLGLSHSTDIGALMYPSYTFSGDVQLAQDDIDGIQAIYGRSQNPVQPIGPQTPKACDSKLTFDAITTIRGEVMFFKDRFYMRTNPFYPEVELNFISVFWPQLPNGLEAAYEFADRDEVRFFKGNKYWAVQGQNVLHGYPKDIYSSFGFPRTVKHIDAALSEENTGKTYFFVANKYWRYDEYKRSMDPGYPKMIAHDFPGIGHKVDAVFMKDGFFYFFHGTRQYKFDPKTKRILTLQKANSWFNCRKN
B2: hMMP-1 (purchased from R&D Systems, #901-MP), activated with AMPA (protein)
chain: B1 chain
B3: Wild type hMMP-1 clone BAP006-10 (pET303CTHis, expressed in BL21 (DE3) E. coli), activated with AMPA (protein)
chain: FVLTEGNPRWEQTHLTYRIENYTPDLPRADVDHAIEKAFQLWSNVTPLTFTKVSEGQADIMISFVRGDHRDNSPFDGPGGNLAHAFQPGPGIGGDAHFDEDERWTNNFREYNLHRVAAHELGHSLGLSHSTDIGALMYPSYTFSGDVQLAQDDIDGIQAIYGRSQNPVQPIGPQTPKACDSKLTFDAITTIRGEVMFFKDRFYMRTNPFYPEVELNFISVFWPQLPNGLEAAYEFADRDEVRFFKGNKYWAVQGQNVLHGYPKDIYSSFGFPRTVKHIDAALSEENTGKTYFFVANKYWRYDEYKRSMDPGYPKMIAHDFPGIGHKVDAVFMKDGFFYFFHGTRQYKFDPKTKRILTLQKANSWFNCRKNHHHHH
B4: cathepsin S (R&D systems, activated) (protein)
chain: LPDSVDWREKGCVTEVKYQGSCGACWAFSAVGALEAQLKLKTGKLVSLSAQNLVDCSTEKYGNKGCNGGFMTTAFQYIIDNKGIDSDASYPYKAMDQKCQYDSKYRAATCSKYTELPYGREDVLKEAVANKGPVSVGVDARHPSFFLYRSGVYYEPSCTQNVNHGVLVVGYGDLNGKEYWLVKNSWGHNFGEEGYIRMARNKGNHCGIASFPSYPEI

Experiments:
[1] = molecular target: FITC-labeled collagen (Elastin #CF308)
[2] = molecular target: FITC-labeled collagen (Sigma #C4361)
[3] = molecular target: insoluble collagen conjugated to fluorescein isothiocyanate (FITC) (Anaspec #85111 or Sigma Collagen #C4361)
[4] = molecular target: Soluble rat tail collagen Type I, P02454
Soluble rat tail collagen Type I, P02454, sequence (P02454 152-1207, chain 1 of 2): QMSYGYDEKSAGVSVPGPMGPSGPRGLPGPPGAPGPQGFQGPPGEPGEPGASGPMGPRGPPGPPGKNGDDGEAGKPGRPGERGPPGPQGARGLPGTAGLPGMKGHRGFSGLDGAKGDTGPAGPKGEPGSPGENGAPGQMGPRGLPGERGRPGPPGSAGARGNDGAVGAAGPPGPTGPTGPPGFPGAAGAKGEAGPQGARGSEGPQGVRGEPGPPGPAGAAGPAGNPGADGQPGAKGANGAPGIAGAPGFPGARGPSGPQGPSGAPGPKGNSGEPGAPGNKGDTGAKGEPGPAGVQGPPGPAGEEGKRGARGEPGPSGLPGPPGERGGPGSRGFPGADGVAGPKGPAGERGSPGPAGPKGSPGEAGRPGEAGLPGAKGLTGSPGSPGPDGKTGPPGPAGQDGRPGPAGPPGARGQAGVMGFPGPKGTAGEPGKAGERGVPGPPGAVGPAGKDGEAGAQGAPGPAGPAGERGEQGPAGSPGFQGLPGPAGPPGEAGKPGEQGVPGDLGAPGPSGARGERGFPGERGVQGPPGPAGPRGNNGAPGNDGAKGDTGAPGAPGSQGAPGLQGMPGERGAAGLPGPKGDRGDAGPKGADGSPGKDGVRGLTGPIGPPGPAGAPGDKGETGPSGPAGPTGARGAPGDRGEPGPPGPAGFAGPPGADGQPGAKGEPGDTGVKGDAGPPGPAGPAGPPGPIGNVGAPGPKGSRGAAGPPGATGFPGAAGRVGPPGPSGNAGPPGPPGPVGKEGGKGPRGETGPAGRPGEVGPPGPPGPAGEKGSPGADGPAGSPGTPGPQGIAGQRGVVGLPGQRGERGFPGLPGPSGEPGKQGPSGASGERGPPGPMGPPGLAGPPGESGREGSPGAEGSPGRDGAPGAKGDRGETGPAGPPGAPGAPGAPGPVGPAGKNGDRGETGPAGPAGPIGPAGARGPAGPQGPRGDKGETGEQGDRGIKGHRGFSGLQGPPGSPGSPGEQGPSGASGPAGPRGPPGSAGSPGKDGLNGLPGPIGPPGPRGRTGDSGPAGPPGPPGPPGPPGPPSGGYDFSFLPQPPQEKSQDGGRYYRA
Soluble rat tail collagen Type I, P02454, sequence (chain, as listed by the source, chain 2 of 2): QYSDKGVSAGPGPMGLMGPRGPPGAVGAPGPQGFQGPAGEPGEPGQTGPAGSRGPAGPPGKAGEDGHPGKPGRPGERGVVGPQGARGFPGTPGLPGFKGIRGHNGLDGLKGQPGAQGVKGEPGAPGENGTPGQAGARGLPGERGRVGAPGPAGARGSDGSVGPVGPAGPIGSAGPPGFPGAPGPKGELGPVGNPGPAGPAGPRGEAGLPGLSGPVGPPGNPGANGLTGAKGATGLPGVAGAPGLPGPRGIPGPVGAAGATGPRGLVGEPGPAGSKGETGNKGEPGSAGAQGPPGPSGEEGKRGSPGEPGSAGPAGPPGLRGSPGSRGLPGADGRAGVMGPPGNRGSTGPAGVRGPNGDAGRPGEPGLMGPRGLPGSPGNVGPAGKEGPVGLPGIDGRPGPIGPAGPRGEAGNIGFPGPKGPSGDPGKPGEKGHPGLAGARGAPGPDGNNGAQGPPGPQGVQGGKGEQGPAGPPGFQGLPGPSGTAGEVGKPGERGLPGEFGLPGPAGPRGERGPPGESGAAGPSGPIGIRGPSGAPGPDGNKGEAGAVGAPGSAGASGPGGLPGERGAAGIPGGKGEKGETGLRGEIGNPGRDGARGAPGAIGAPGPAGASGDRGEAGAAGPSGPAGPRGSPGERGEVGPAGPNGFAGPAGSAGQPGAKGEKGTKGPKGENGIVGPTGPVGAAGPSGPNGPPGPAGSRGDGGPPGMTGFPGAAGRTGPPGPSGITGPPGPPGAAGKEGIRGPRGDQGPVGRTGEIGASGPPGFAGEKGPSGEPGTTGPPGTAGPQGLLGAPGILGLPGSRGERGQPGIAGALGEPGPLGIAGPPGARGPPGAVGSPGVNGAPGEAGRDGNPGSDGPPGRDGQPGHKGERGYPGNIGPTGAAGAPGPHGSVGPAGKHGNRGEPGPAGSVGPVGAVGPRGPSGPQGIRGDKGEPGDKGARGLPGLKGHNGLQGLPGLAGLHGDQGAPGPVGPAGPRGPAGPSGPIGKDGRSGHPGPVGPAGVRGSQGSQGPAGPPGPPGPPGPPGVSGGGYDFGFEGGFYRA

Row | Protein | RFU, 37° C. (fluorescence of supernatant after 144 hours, replicate 1) [1] | RFU, 37° C. (fluorescence of supernatant after 144 hours, replicate 2) [1] | RFU, Avg 37° C. (fluorescence of supernatant after 144 hours) [1] | RFU, 37° C. (fluorescence of supernatant after 144 hours, replicate 1) [2] | RFU, 37° C. (fluorescence of supernatant after 144 hours, replicate 2) [2] | RFU, Avg 37° C. (fluorescence of supernatant after 144 hours) [2] | cleavage of insoluble collagen (7.5% SDS polyacrylamide gel, Coomassie Blue) [3] | degradation of soluble rat tail collagen Type I (1 hour at 37° C., SDS-Page gels, Coomassie Blue staining) [4]
1 | B1 | 1730 RFU | 2300 RFU | 2010 RFU | 1270 RFU | 1280 RFU | 1270 RFU | after 24 hours incubation at 25 °C or 37° C., hMMP-1 partially cleaved the α1(I) and α2(I) collagen chains into ¾ and ¼ length digestion products for all hMMP-1 proteins tested | 
2 | B2 | 3490 RFU | 2980 RFU | 3240 RFU | 1160 RFU | 1140 RFU | 1150 RFU | after 24 hours incubation at 25 °C or 37° C., hMMP-1 partially cleaved the α1(I) and α2(I) collagen chains into ¾ and ¼ length digestion products for all hMMP-1 proteins tested | 
3 | B3 | 2670 RFU | 3060 RFU | 2860 RFU | 1290 RFU | 1340 RFU | 1310 RFU | after 24 hours incubation at 25 °C or 37° C., hMMP-1 partially cleaved the α1(I) and α2(I) collagen chains into ¾ and ¼ length digestion products for all hMMP-1 proteins tested | 
4 | B4 |  |  |  |  |  |  |  | Cathepsins B, D and S showed some slight degradation of rat collagen at the manufacture specified pH and no degradation of rat collagen at pH 8.0
